Experimental findings from patent publication US20220282217A1 (BIONTECH US, published 2022) are described below.

Test [1] has as its target T1, HLA-A02.01 (human).
T1 construct: Purified class I MHC
Briefly: pMHC-I dissociation half-life, 125I-b2m. As for the experimental part: (§1) Briefly, synthetic genes encoding biotinylated MHC-I heavy and light chains are expressed in E. coli and purified from inclusion bodies using standard methods. […] These reactions are carried out in streptavidin coated microplates to bind the biotinylated MHC-I heavy chains to the surface and allow measurement of radiolabeled light chain to monitor complex formation. Dissociation is initiated by addition of higher concentrations of unlabeled light-chain and incubation at 37° C. Stability is defined as the length of time in hours it takes for half of the complexes to dissociate, as measured by scintillation counts.

Test [2] has as its target T1, HLA-A02.01. Briefly: competition with radiolabeled reference peptide, purified MHC I. As for the experimental part: (§2) Peptides were incubated at varying concentrations with these complexes for 2 days, and the amount of remaining radiolabeled peptide bound to […] was measured using size exclusion gel-filtration.
For test [3], the target named is T2, HLA-A03.01 (human).
T2 construct: Purified class I MHC
The test is described as above. As to the method: as §2

Test [4] addresses T3, HLA-A03.01 (human).
T3 construct: As for HLA-A02.01
The test can be described thus: competition vs radiolabeled reference peptide on purified MHC I, gel filtration. As to the method:
as §2
(In general: Size exclusion chromatography separates by hydrodynamic size, large species first.)

Test [5] concerns the target T4, HLA-B08.01 (human).
T4 construct: As for HLA-A02.01
Briefly: pMHC-I complex dissociation at 37 C, 125I-b2m, half-life. As for the experimental part:
as §1

Test [6] addresses HLA-A02.01 (human). The test is described as above. As to the method: as §1
Test [7] addresses HLA-A02.01 (human). Briefly: competition vs radiolabeled reference peptide on purified MHC I, gel filtration. As for the experimental part: as §2
Test [8] concerns the target T5, HLA-B08.01 (human).
T5 construct: Purified class I MHC
Briefly: pMHC-I dissociation half-life, 125I-b2m. As for the experimental part: as §1

In the case of NSFEVCVCA (also called TP53, R273C), in the test with HLA-A02.01 [1], the “Stability (T1/2 (h))” value was determined as 0 h. In the test with HLA-A02.01 [2], the IC50 – broadly, the concentration at which inhibition is half-maximal – is 2200 nM.

For NSFEVHVCA (also called TP53, R273H), the “Stability (T1/2 (h))” value with HLA-A02.01 [1] came to 0 h. This molecule also returned an IC50 in the test with HLA-A02.01 [2] of 503 nM.

The molecule HLQLKSCRRK (also called SMAP1(-1)) came in with an IC50 with HLA-A03.01 [3] of 96.9 nM. This counts as double-digit nanomolar.

FVMSDTTYK (also called TTK(-1)): the IC50 in the test with HLA-A03.01 [3] amounted to 66.9 nM. The IC50 values of the last two molecules are within 1.5-fold of each other.

The molecule AMTTSSSQKN (also called TGFBR2(-1)) registered an IC50 with HLA-A03.01 [3] of 2340 nM.

Regarding RVNTAWKTK (also called TFAM(+1)), the IC50 with HLA-A03.01 [3] stood at 8.6 nM.

LLGRNSFEVC (also called TP53, R273C): in the test with HLA-A02.01 [1], the “Stability (T1/2 (h))” value was determined as 0 h. In the test with HLA-A02.01 [2], the IC50 is 2080 nM.

Molecule SLQPPPPGFK (also called C15ORF40(+1)) gave an IC50 with HLA-A03.01 [4] of 19 nM.

With SVCFFFFSV (also called CNOT1(+1)), in the test with HLA-B08.01 [5], the “Stability (T1/2 (h))” value worked out at 0 h.

For the molecule ELFPLIFPA (also called C11orf95: RELA), the “Stability (T1/2 (h))” value with HLA-A02.01 [6] stood at 5.1 h; with HLA-B08.01 [5], 0 h. For the same molecule, in the test with HLA-A02.01 [7], the IC50 was 13 nM.

In turn, LFFFFFETK (also called C15ORF40(+1)) had an IC50 with HLA-A03.01 [4] of 413 nM. This counts as sub-micromolar.

For the molecule MALNSEALSV (also called TMPRSS2: ERG), the “Stability (T1/2 (h))” value with HLA-B08.01 [8] was 0 h.

Consider ALNSEALSVV (also called TMPRSS2: ERG), for which, in the test with HLA-A02.01 [1], the “Stability (T1/2 (h))” value was 2.9 h.

Turning to ALFFFFFETK (also called C15ORF40(+1)), the IC50 with HLA-A03.01 [4] came to 216 nM. This counts as sub-micromolar.

In turn, LLTSSSREWK (also called β2M, . . ; SIRH) came in with an IC50 with HLA-A03.01 [4] of 1770 nM.

Turning to QLQDKFEHL (also called EGFR: SEPT14), the “Stability (T1/2 (h))” value in the test with HLA-A02.01 [6] came out at 0.6 h; in the test with HLA-B08.01 [5], 0 h.

Molecule LTSSSREWK (also called β2M, . . ; SIRH) came in with a half-maximal inhibitory concentration (IC50) with HLA-A03.01 [4] of 118 nM.

For the molecule MANGSLLNY (also called BTK, C481S), the IC50 with HLA-A03.01 [4] turned out to be 35.6 nM.

As for QLIMQLMPF (also called EGFR, T790M), the “Stability (T1/2 (h))” value with HLA-B08.01 [5] came to 0 h.

With LFVMSDTTYK (also called TTK(-1)), in the test with HLA-A03.01 [3], the IC50 came out at 749 nM.

For SMLTDSLFL (also called VHL, QCIL), the “Stability (T1/2 (h))” value in the test with HLA-A02.01 [1] amounted to 9.8 h. The molecule also came in with an IC50 in the test with HLA-A02.01 [2] of 31 nM.

Turning to GMNQRPILT (also called TP53, R248Q), in the test with HLA-A02.01 [1], the “Stability (T1/2 (h))” value amounted to 0 h. In the test with HLA-A02.01 [2], this molecule gave an IC50 of 3030 nM.

As to GMNWRPILT (also called TP53, R248W), the “Stability (T1/2 (h))” value in the test with HLA-A02.01 [1] came to 0 h. Besides, the IC50 in the test with HLA-A02.01 [2] is 1130 nM.

For the molecule MANGSLLNYL (also called BTK, C481S), in the test with HLA-B08.01 [5], the “Stability (T1/2 (h))” value turned out to be 0 h.

On to ALSEHCPTT (also called TP53, CSES), for which the “Stability (T1/2 (h))” value with HLA-A02.01 [1] was 27.3 h. This molecule showed an IC50 in the test with HLA-A02.01 [2] of 79 nM.

Turning to KTFEKKGEK (also called TTK(-1)), the IC50 with HLA-A03.01 [3] turned out to be 32.2 nM.

For the molecule LSFLSSWDYR (also called C15ORF40(+1)), in the test with HLA-A03.01 [4], the IC50 is 101 nM. That is a sub-micromolar value.

As for YMCNSSCMGS (also called TP53, G245S), in the test with HLA-A02.01 [1], the “Stability (T1/2 (h))” value was found to be 0.8 h. In the test with HLA-A02.01 [2], this molecule registered an IC50 of 81 nM.

As for GLVDEQQEV (also called SF3B1, K700E), in the test with HLA-A02.01 [1], the “Stability (T1/2 (h))” value turned out to be 7.4 h. This molecule also yielded an IC50 with HLA-A02.01 [2] of 44 nM.

As to TQLARFFPI (also called RNF43, RHTP), in the test with HLA-B08.01 [8], the “Stability (T1/2 (h))” value stood at 0 h.

VVPCEPPEV (also called TP53, Y220C): in the test with HLA-A02.01 [1], the “Stability (T1/2 (h))” value was 0.9 h.

For KMRKKYAQK (also called THAP5(-1)), the IC50 with HLA-A03.01 [3] was determined as 5.7 nM.

As for KRVNTAWKTK (also called TFAM(+1)), in the test with HLA-A03.01 [3], the half-inhibitory concentration (IC50) worked out at 332 nM. Against the preceding molecule, the IC50 is about 58-fold higher.

Take KLFSCLSFLS (also called C15ORF40(+1)): the IC50 came out at 0.6 nM with HLA-A02.01 [7] and 104 nM in the test with HLA-A03.01 [4].

In the test with HLA-A03.01 [3], RVNTAWKTKK (also called TFAM(+1)) yielded an IC50 of 2.3 nM.

As for SLLNYLREM (also called BTK, C481S), in the test with HLA-B08.01 [5], the “Stability (T1/2 (h))” value worked out at 0 h.

As to LQSLPRFILM (also called ALK, L1196M), in the test with HLA-B08.01 [5], the “Stability (T1/2 (h))” value was 0 h.

Take IQLQDKFEHL (also called EGFR: SEPT14): the “Stability (T1/2 (h))” value is 0.2 h with HLA-A02.01 [6] and 0 h in the test with HLA-B08.01 [5]. In the test with HLA-A02.01 [7], this molecule showed an IC50 of 4260 nM.

On to SLPRFILMEL (also called ALK, L1196M), for which the “Stability (T1/2 (h))” value with HLA-B08.01 [5] stood at 0 h.

For CMGSMNRRPI (also called TP53, G245S), the “Stability (T1/2 (h))” value with HLA-B08.01 [8] worked out at 0 h.

As to LLAFWDSQV (also called TP53, AAVG), in the test with HLA-A02.01 [1], the “Stability (T1/2 (h))” value was 12.8 h. In the test with HLA-A02.01 [2], this molecule registered an IC50 of 68 nM.

As to TTLNSPPLK (also called β2M, . . ; MPAV), the IC50 with HLA-A03.01 [4] was determined as 9.8 nM.

For the molecule VQLIMQLMPF (also called EGFR, T790M), the “Stability (T1/2 (h))” value in the test with HLA-B08.01 [5] is 0 h.

With GLLAFWDSQV (also called TP53, AAVG), in the test with HLA-A02.01 [1], the “Stability (T1/2 (h))” value was 14.2 h. The IC50 with HLA-A02.01 [2] is 10 nM.

Turning to LTINKEEAL (also called BCR: ABL (e13a2, aka b2a2)), the “Stability (T1/2 (h))” value in the test with HLA-B08.01 [5] worked out at 0 h.

On to TTLNSPPLKK (also called β2M, . . ; MPAV), for which the IC50 with HLA-A03.01 [4] came out at 14.3 nM.

Regarding IMQLMPFGCL (also called EGFR, T790M), the “Stability (T1/2 (h))” value in the test with HLA-B08.01 [5] was 0 h.

Regarding MQLMPFGCL (also called EGFR, T790M), the “Stability (T1/2 (h))” value with HLA-B08.01 [5] was 0 h.

On to VLERCPHRPI (also called FGFR3, S249C), for which the “Stability (T1/2 (h))” value with HLA-A02.01 [6] and with HLA-B08.01 [5] was 0 h in each case. In addition, the IC50 with HLA-A02.01 [7] was 15300 nM.

Turning to TLNSPPLKK (also called β2M, . . ; MPAV), the IC50 with HLA-A03.01 [4] was 5.4 nM. This lies in the single-digit nanomolar range.

For RKISNWSLKK (also called SMAP1(-1)), the IC50 in the test with HLA-A03.01 [3] came out at 131 nM.

Molecule RMKVPLMK (also called FAM111B(-1)) came in with an IC50 in the test with HLA-A03.01 [4] of 33 nM. That is a double-digit nanomolar value.

For SLKKVPALKK (also called SMAP1(-1)), the IC50 with HLA-A03.01 [3] is 9.6 nM.

For KISNWSLKKV (also called SMAP1(-1)), the IC50 in the test with HLA-A03.01 [3] came to 115 nM.

In the case of ALNSEALSV (also called TMPRSS2: ERG), in the test with HLA-A02.01 [1], the “Stability (T1/2 (h))” value was 9.1 h. In the test with HLA-A02.01 [2], this molecule displayed an IC50 of 14 nM.

Turning to CTTLNSPPLK (also called β2M, . . ; MPAV), the IC50 with HLA-A03.01 [4] came out at 63.6 nM.

Turning to MQLMPFGCLL (also called EGFR, T790M), the “Stability (T1/2 (h))” value in the test with HLA-B08.01 [5] was 0 h.
